{"source": "the DeepSol protein solubility set", "data": [{"test": "soluble on expression in E. coli; label from the status in PepcDB or PDB records", "values": [{"sequence": "MTDAAIAEKDLGNAAYKQKDFEKAHVHYDKAIELDPSNITFYNNKAAVYFEEKKFAECVQFCEKAVEVGRETRADYKLIAKAMSRAGNAFQKQNDLSLAVQWFHRSLSEFRDPELVKKVKELEKQLKAAERLAYINPELAQEEKNKGNEYFKKGDYPTAMRHYNEAVKRDPENAILYSNRAACLTKLMEFQRALDDCDTCIRLDSKFIKGYIRKAACLVAMREWSKAQRAYEDALQVDPSNEEAREGVRNCLRSNDEDPEKAKERSLADPEVQEILRDPGMRMILEQMSNDPGAVREHLKNPEIFQKLMKLRDAGVIQMR", "soluble on expression in E. coli": "soluble"}, {"sequence": "MCMSVFKRLRDLTMSNVYSLIEKAEDPVKMTDQYLRDMQADVQEAEKSVAAQIALEKKFKILFEEQEALVKKREEQAHMAVQASNLDLARRALEEKQNAEQKMNEYKASYEQNKAAADNLRLKLEEMRKQLTELKNKRETLVARVNAAKAQKNINQAMSGFDSNSAKAGLSRMEEKALQLEAEAEASGEVYKKEKSLDDEFASLNKNSAVDDELARIMKQYEKMAGDPLEHHHHHH", "soluble on expression in E. coli": "not soluble"}, {"sequence": "SPRPRKRQTGTAGPDRKKLSGKRTKTENSESTSVKLENSSLEMTTTFKNGGKNLSNYWLMKSEPESRLEKGIDMKFSIEDLKAQPKQTACWDGVRNYQARNFLRAMKLEDEAFFYHSNCKQPGIVGLMKIVKEAYPDHTQFEKSNPHYDPSSKEDDPKWSMVDVQFVRMMKRFIPLEELKTYHQAHKATGGPLKSMTLFTRQRLSVQPLTQEEFDFILSLEETEPS", "soluble on expression in E. coli": "soluble"}, {"sequence": "MSLVVKVKQKIPLKIKRMGINGEGIGFYQKTLVFVPGALKGEDIFCQITAVKRNFAEAKLLTVNKASKNRVKPACSVYETCGGCQIMHLAYPKQLDFKDDVIRQALKKFKPTGYEQFEIRPTLGMKKPDHYRAKLQFQLRSFGGTVKAGLFSQGSHRLVPIDNCLVQDQLTQDIINKITQLVDKYKLPIYNERKIAGIRTIMVRKAQASDQVQIIVVSSKEVRLANFIGELTKAFPQVKTVALNSNRSKSSEIYGDETEILWGQEAIHEEVLDYGFALSPRAFYQLNPQQTEVLYGEVVKALDVGSKDHIIDAYCGVGSIGFAFAGKVKSVRGMDIIPEAIEDAQKNAKAMGFDNAYYEAGKAEDIISKWYKQGYRADAVIVDPPRTGLDDKLLKTILHYQPKQMVYVSCNTSTLARDLVQLTKVYDVHYIQSVDMFPHTARTEAVVKLQKRVEGHHHHHH", "soluble on expression in E. coli": "not soluble"}, {"sequence": "LARMSEREIDISLGTTVGRSLWRLAQGHDDREVAPRAIAKQISVEHTYPKDLVTSRAVDTAIIRASRESHRRLLDDGRGARTVSVKLRMADFRIESRSATLPYATDNLDTVTATALKLARYPDEVGPIRLVGVGLSGLEDARQDILFPELDRVVPVKDTDFEVGVSDPHDSDLEISTTDESPTAIGWRATQDIWHPDYGHGWVQGLGHGKITVRFETRTTGPGKVRTFDTNDALLSSADPINSLDWS", "soluble on expression in E. coli": "not soluble"}, {"sequence": "MNDDTRARGGREGGLRAARDRLQPALLDRLTDDERARCTEPPDAQAIGGERLRAAVLRDLAWLLNTRNGEDGFVDWAAFAHAQASVLNYGMRPLVGKPMSGVERMSVEASIRDAIVRFEPRIAPDSVEVRSVLDAPGGAAGERRHNVLMFEIKGTLWSVPHPVEFVLRSALDLETGAMALQPAAGG", "soluble on expression in E. coli": "not soluble"}, {"sequence": "MRIVVTRPQRSGERTAAKLEALGHAPVLLPLFHPIHHGERATSALSDPAGAIAVTSAEALRALATCEEQLAPYLSKPLFAVGGATAEAAQETGFEQIFTASGDALGLTVLVKQHRAFLTEEEPLLYLAGRPRGSVFEEGLAAAGIPFRTVDCYEMLPSDISENTLETTLLDTTADMVLLYSSEAARAFFHHVSADKYVTALAATKFICISRNVLFLVPEIFRANAKAAEEPSEAAMFELLHHNSGT", "soluble on expression in E. coli": "not soluble"}, {"sequence": "SEKEKGNDDGIPDQENSLDFSEHFNQLELLETHGHLIPTGTQSLWVGNSDEDEEQDDKNEEWYRLQEKKMEKDPSRLLLWAAEKNRLTTVRRLLSEKATHVNTRDEDEYTPLHRAAYSGHLDIVQELIAQGADVHAVTVDGWTPLHSACKWNNTRVASFLLQHDADINAQTKGLLTPLHLAAGNRDSKDTLELLLMNRYVKPGLKNNLEETAFDIARRTSIYHYLFEIVEGCTNSSPQS", "soluble on expression in E. coli": "soluble"}, {"sequence": "MNRLKNMSKYSDAKELASLTLGKKTEYANQYDPSLLQPVPRSLNRNDLHLSATLPFQGCDIWTLYELSWLNQKGLPQVAIGEVSIPATSANLIESKSFKLYLNSYNQTRFASWDEVQTRLVHDLSACAGETVTVNVKSLNEYTAEPIVTMQGECIDDQDIEIANYEFDDALLQGAAQGEEVSEVLHSHLLKSNCLITNQPDWGSVEIAYHGAKMNREALLRYLVSFREHNEFHEQCVERIFTDIMRYCQPQSLTVYARYTRRGGLDINPFRSSHQSAPNHNQRMARQ", "soluble on expression in E. coli": "soluble"}]}]}
